The values that follow come from paper PMC12394453.

“And” between values parts separate entries of the source, which are not always exact repeats. Identical values can stand only once.

This experiment addresses HeV-G (wild-type Hendra virus attachment glycoprotein G, soluble recombinant) (Hendra virus) (UniProt O89343). Nature of the experiment: SEC; oligomeric states of the purified G protein (Supplementary Fig. 7). A general note: Size exclusion chromatography separates by hydrodynamic size, large species first.

Chain of HeV-G (wild-type Hendra virus attachment glycoprotein G, soluble recombinant) (O89343 71-604 limits assumed): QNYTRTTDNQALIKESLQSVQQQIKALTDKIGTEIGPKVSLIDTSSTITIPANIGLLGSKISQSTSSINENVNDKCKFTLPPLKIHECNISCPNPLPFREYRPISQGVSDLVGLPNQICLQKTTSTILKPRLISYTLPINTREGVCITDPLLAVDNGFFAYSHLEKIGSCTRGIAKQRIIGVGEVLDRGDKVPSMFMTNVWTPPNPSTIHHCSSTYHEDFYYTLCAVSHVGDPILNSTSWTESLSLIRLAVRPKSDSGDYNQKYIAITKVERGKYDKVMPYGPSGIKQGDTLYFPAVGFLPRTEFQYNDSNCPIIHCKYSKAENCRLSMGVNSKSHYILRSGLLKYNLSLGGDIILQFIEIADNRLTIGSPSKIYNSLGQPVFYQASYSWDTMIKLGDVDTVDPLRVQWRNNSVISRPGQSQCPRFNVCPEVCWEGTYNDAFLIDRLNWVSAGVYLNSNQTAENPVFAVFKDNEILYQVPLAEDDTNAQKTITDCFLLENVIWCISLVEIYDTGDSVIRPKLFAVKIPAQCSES

On to “HeV-G (wild-type Hendra virus attachment glycoprotein G, soluble recombinant) (from UniProt O89343 1-604) (natural protein)”, for which the stoichiometry N (commonly the number of molecules, sites or subunits per partner or assembly) was 4 and 2.
